Values of other authors in patent publication US6663886B2, “Inhibition of cell-cell binding by lipid assemblies” (Regents of the University of California, priority 1997, dated 2003).

Target: T1, P-selectin (Homo sapiens, UniProt P16109)
T1 sequence (P16109 42-830): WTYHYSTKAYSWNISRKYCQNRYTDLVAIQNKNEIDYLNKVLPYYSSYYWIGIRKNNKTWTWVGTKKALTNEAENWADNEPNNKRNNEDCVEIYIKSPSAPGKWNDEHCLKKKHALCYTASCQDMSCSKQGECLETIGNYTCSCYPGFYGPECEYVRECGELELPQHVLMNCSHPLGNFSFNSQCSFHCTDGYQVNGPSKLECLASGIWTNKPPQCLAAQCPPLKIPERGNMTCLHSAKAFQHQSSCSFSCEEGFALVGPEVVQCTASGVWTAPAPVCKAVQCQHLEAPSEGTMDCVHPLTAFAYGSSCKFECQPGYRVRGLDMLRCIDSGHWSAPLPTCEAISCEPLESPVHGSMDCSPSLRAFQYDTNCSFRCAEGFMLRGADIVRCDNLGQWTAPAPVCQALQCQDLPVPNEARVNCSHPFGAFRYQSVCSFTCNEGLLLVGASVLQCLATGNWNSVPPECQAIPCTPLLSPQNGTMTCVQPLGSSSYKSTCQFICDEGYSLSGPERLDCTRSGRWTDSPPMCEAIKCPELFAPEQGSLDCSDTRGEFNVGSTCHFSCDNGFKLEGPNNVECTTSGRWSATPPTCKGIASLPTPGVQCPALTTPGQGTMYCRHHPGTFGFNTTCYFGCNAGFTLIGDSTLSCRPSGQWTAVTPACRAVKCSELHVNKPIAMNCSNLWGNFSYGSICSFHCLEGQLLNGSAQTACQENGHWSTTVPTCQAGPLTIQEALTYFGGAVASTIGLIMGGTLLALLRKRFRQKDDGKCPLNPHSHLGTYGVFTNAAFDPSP
Conditions: literature (Nelson et al. 1993; Moore et al. 1991)

B1: natural ligand: natural ligand of P-selectin, P-selectin glycoprotein ligand 1 (protein, UniProt Q14242 42-412, looked up)
P-selectin glycoprotein …: QATEYEYLDYDFLPETEPPEMLRNSTDTTPLTGPGTPESTTVEPAARRSTGLDAGGAVTELTTELANMGNLSTDSAAMEIQTTQPAATEAQTTQPVPTEAQTTPLAATEAQTTRLTATEAQTTPLAATEAQTTPPAATEAQTTQPTGLEAQTTAPAAMEAQTTAPAAMEAQTTPPAAMEAQTTQTTAMEAQTTAPEATEAQTTQPTATEAQTTPLAAMEALSTEPSATEALSMEPTTKRGLFIPFSVSSVTHKGIPMAASNLSVNYPVGAPDHISVKQCLLAILILALVATIFFVCTVVLAVRLSRKGHMYPVRNYSPTEMVCISSLLPDGGEGPSATANGGLSKAKSPGLTPEPREDREGDDLTLHSFLP
binding affinity of P-selectin: in the nM range
